This experiment addresses Dunaliella salina Hsp90 (DsHsp90) (Dunaliella salina). Kind of experiment: SEC; Superdex G200 10/30 column on an AKTA system; 40 mM HEPES, 25 mM KCl, pH 7.5; apparent molecular weight from a standard curve of markers; single peak.

With “Dunaliella salina Hsp90 (DsHsp90) (natural protein)”, the stoichiometry N worked out at 2.

In general, stoichiometry N refers to a count of units in the complex or per binding partner.

The values above are taken from publication PMC3430215.
